{"source": "patent US20150337051A1", "about": "(MORPHOTEK, published 2015)", "binders": {"B1": {"name": "MORAb-004 (antibody, INN chains, looked up, V domains shown)", "VH": "QVQLQESGPGLVRPSQTLSLTCTASGYTFTDYVIHWVKQPPGRGLEWIGYINPYDDDTTYNQKFKGRVTMLVDTSSNTAYLRLSSVTAEDTAVYYCARRGNSYDGYFDYSMDYWGSGTPVTVSS", "VL": "DIQMTQSPSSLSASVGDRVTITCRASQNVGTAVAWLQQTPGKAPKLLIYSASNRYTGVPSRFSGSGSGTDYTFTISSLQPEDIATYYCQQYTNYPMYTFGQGTKVQIK"}}, "key": {"[1]": {"molecular_target": "T1, recombinant CHO TEM-1 Fc fusion protein (UniProt Q9HCU0)", "T1 sequence (looked up)": "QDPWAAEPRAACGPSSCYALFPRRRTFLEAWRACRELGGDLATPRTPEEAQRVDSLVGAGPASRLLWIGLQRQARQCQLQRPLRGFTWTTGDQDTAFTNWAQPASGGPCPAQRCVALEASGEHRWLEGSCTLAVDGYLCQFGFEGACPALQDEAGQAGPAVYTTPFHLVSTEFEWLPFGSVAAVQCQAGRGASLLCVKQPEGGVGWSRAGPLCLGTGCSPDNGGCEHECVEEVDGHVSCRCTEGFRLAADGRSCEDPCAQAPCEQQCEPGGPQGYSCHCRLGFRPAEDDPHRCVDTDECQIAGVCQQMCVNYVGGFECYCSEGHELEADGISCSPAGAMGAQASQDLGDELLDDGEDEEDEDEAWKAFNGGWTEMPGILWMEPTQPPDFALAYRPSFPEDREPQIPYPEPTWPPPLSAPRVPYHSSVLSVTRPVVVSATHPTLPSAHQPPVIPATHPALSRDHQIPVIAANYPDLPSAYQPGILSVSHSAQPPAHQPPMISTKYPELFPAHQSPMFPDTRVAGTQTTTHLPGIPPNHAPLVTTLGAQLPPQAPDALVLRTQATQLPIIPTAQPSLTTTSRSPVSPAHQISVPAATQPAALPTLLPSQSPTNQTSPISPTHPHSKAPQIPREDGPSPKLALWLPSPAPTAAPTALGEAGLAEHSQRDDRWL", "experiment": "ECL sandwich, competition: biotin-9G5 capture, sulfo-TAG-15F8 detection; MORAb-004 spike 0.78125 µg/mL, TEM-1-Fc QC 0.4 ng/mL; recovery at 0 µg/mL MORAb-004: 109"}, "[2]": {"molecular_target": "T1, recombinant CHO TEM-1 Fc fusion protein", "experiment": "ECL sandwich, competition: biotin-9G5 capture, sulfo-TAG-15F8 detection; MORAb-004 spike 1.5625 µg/mL, TEM-1-Fc QC 0.08 ng/mL; recovery at 0 µg/mL MORAb-004: 114"}, "[3]": {"molecular_target": "T1, recombinant CHO TEM-1 Fc fusion protein", "experiment": "ECL sandwich, competition: biotin-9G5 capture, sulfo-TAG-15F8 detection; MORAb-004 spike 6.25 µg/mL, TEM-1-Fc QC 50 ng/mL; recovery at 0 µg/mL MORAb-004: 104"}, "[4]": {"molecular_target": "T1, recombinant CHO TEM-1 Fc fusion protein", "experiment": "ECL sandwich, competition: biotin-9G5 capture, sulfo-TAG-15F8 detection; MORAb-004 spike 50 µg/mL, TEM-1-Fc QC 50 ng/mL; recovery at 0 µg/mL MORAb-004: 104"}, "[5]": {"molecular_target": "T1, recombinant CHO TEM-1 Fc fusion protein", "experiment": "ECL sandwich, competition: biotin-9G5 capture, sulfo-TAG-15F8 detection; MORAb-004 spike 6.25 µg/mL, TEM-1-Fc QC 2 ng/mL; recovery at 0 µg/mL MORAb-004: 106"}, "[6]": {"molecular_target": "T1, recombinant CHO TEM-1 Fc fusion protein", "experiment": "ECL sandwich, competition: biotin-9G5 capture, sulfo-TAG-15F8 detection; MORAb-004 spike 25 µg/mL, TEM-1-Fc QC 0.4 ng/mL; recovery at 0 µg/mL MORAb-004: 109"}, "[7]": {"molecular_target": "T1, recombinant CHO TEM-1 Fc fusion protein", "experiment": "ECL sandwich, competition: biotin-9G5 capture, sulfo-TAG-15F8 detection; MORAb-004 spike 50 µg/mL, TEM-1-Fc QC 0.4 ng/mL; recovery at 0 µg/mL MORAb-004: 109"}, "[8]": {"molecular_target": "T1, recombinant CHO TEM-1 Fc fusion protein", "experiment": "ECL sandwich, competition: biotin-9G5 capture, sulfo-TAG-15F8 detection; MORAb-004 spike 12.5 µg/mL, TEM-1-Fc QC 10 ng/mL; recovery at 0 µg/mL MORAb-004: 105"}, "[9]": {"molecular_target": "T1, recombinant CHO TEM-1 Fc fusion protein", "experiment": "ECL sandwich, competition: biotin-9G5 capture, sulfo-TAG-15F8 detection; MORAb-004 spike 12.5 µg/mL, TEM-1-Fc QC 0.08 ng/mL; recovery at 0 µg/mL MORAb-004: 114"}, "[10]": {"molecular_target": "T1, recombinant CHO TEM-1 Fc fusion protein", "experiment": "ECL sandwich, competition: biotin-9G5 capture, sulfo-TAG-15F8 detection; MORAb-004 spike 3.125 µg/mL, TEM-1-Fc QC 50 ng/mL; recovery at 0 µg/mL MORAb-004: 104"}, "[11]": {"molecular_target": "T2, TEM-1 in a native state on aortic smooth muscle cells (AoSMC) (UniProt Q9HCU0)", "T2 sequence (looked up)": "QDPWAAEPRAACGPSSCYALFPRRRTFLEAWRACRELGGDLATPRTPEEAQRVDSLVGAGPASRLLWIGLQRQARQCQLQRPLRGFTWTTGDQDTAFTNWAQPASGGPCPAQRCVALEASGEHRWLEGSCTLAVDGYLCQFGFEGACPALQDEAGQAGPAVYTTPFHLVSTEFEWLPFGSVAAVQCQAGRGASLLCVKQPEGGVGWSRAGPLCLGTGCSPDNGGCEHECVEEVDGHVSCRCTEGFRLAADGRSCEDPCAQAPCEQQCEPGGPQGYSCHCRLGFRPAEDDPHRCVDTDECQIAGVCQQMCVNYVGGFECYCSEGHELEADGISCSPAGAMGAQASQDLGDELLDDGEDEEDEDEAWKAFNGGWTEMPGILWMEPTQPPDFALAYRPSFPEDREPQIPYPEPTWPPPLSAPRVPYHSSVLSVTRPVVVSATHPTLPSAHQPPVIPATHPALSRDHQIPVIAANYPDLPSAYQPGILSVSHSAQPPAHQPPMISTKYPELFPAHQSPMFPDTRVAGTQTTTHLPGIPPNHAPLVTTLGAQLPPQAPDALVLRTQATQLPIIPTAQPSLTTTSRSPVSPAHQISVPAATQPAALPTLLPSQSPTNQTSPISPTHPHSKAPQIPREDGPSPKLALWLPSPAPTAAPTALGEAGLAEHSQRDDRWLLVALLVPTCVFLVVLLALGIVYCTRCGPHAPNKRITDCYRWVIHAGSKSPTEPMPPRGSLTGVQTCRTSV", "experiment": "flow cytometry on AoSMC, primary antibody then FITC secondary; cells only 2.5, secondary only 3.9"}}, "data": [{"binder": "B1", "values": [{"measurement": "% Recovery of TEM-1 QCs spiked with MORAb-004", "setting": "[1]", "result": 105, "unit": "%"}, {"measurement": "% Recovery of TEM-1 QCs spiked with MORAb-004", "setting": "[2]", "result": 103, "unit": "%"}, {"measurement": "% Recovery of TEM-1 QCs spiked with MORAb-004", "setting": "[3]", "result": 95.7, "unit": "%"}, {"measurement": "% Recovery of TEM-1 QCs spiked with MORAb-004", "setting": "[4]", "result": 93.1, "unit": "%"}, {"measurement": "% Recovery of TEM-1 QCs spiked with MORAb-004", "setting": "[5]", "result": 94.2, "unit": "%"}, {"measurement": "% Recovery of TEM-1 QCs spiked with MORAb-004", "setting": "[6]", "result": 96.5, "unit": "%"}, {"measurement": "% Recovery of TEM-1 QCs spiked with MORAb-004", "setting": "[7]", "result": 91.9, "unit": "%"}, {"measurement": "% Recovery of TEM-1 QCs spiked with MORAb-004", "setting": "[8]", "result": 91.2, "unit": "%"}, {"measurement": "% Recovery of TEM-1 QCs spiked with MORAb-004", "setting": "[9]", "result": 99.4, "unit": "%"}, {"measurement": "% Recovery of TEM-1 QCs spiked with MORAb-004", "setting": "[10]", "result": 94.5, "unit": "%"}, {"measurement": "Geometric mean of resulting FACS plot", "setting": "[11]", "result": 103}]}]}
